Reference: article PMC3463842

Molecular target: ubiquitin^TAMRA (C-terminal TAMRA-labelled ubiquitin) (UniProt P0CG48)
Assay: fluorescence polarisation

Kd	Substance
97 µM	HOIP^LDD (domain or fragment)
734 µM	HOIP^LDD C930A (domain or fragment)
